# Columns and labels:
# HLA-A*30:01 = test: IEDB peptide-MHC binding, purified MHC/competitive/radioactivity; filed as Kd, often an IC50 or EC50 that approximates it; ≥ and ≤ were set here for values at or beyond the usual limits of such assays
# HLA-B*40:01 = test: IEDB peptide-MHC binding, purified MHC/direct/fluorescence; filed as Kd, often an IC50 or EC50 that approximates it; ≥ and ≤ were set here for values at or beyond the usual limits of such assays
# HLA-B*18:01 = test: as above
# HLA-B*08:01 [1] = test: IEDB peptide-MHC binding, purified MHC/competitive/radioactivity; filed as Kd, often an IC50 or EC50 that approximates it; ≥ and ≤ were set here for values at or beyond the usual limits of such assays
# HLA-A*32:01 = test: as above
# HLA-A*30:02 = test: as above
# HLA-A*26:01 = test: as above
# HLA-A*29:02 = test: as above
# HLA-A*01:01 = test: as above
# HLA-A*24:02 = test: as above
# HLA-A*23:01 = test: as above
# HLA-A*11:01 [2] = test: IEDB peptide-MHC binding, purified MHC/direct/fluorescence; filed as Kd, often an IC50 or EC50 that approximates it; ≥ and ≤ were set here for values at or beyond the usual limits of such assays; conditions: source organism: SARS-CoV1
# HLA-B*08:01 [3] = test: as above; conditions: source organism: SARS-CoV1
# HLA-B*27:05 = test: as above; conditions: source organism: SARS-CoV1
# HLA-B*44:02 = test: as above; conditions: source organism: Influenza A virus (A/Duck/Shantou/2144/00(H9N2))
# HLA-B*51:01 = test: IEDB peptide-MHC binding, purified MHC/competitive/radioactivity; filed as Kd, often an IC50 or EC50 that approximates it; ≥ and ≤ were set here for values at or beyond the usual limits of such assays
# HLA-A*11:01 [4] = test: as above; conditions: source organism: Dengue virus 2 Jamaica/1409/1983
# HLA-A*03:01 = test: as above; conditions: source organism: Dengue virus 2 Jamaica/1409/1983
# HLA-A*02:01 = test: IEDB peptide-MHC binding, purified MHC/direct/fluorescence; filed as Kd, often an IC50 or EC50 that approximates it; ≥ and ≤ were set here for values at or beyond the usual limits of such assays; conditions: source organism: SARS-CoV1
# HLA-A*31:01 = test: as above; conditions: source organism: SARS-CoV1
# HLA-B*15:01 = test: as above; conditions: source organism: SARS-CoV1
# [5] = source organism: Vaccinia virus WR
# [6] = source organism: Orthohantavirus hantanense
# [7] = source organism: Mammarenavirus juninense
# [8] = source organism: Dengue virus 4 Dominica/814669/1981
# [9] = source organism: Dengue virus 2 Jamaica/1409/1983
# [10] = source organism: Mammarenavirus guanaritoense
# [11] = source organism: Lassa virus Josiah
# [12] = source organism: Dengue virus 1 Brazil/97-11/1997
# [13] = source organism: Vaccinia virus Copenhagen
# [14] = source organism: Mammarenavirus tacaribeense
# [15] = source organism: Influenza A virus (A/Duck/Shantou/2144/00(H9N2))
# [16] = source organism: Lymphocytic choriomeningitis virus (strain Armstrong)
sequence,measurement,setting,value
AARDRQFEK,Kd,HLA-A*30:01; [5],104 nM
AEAAGCSMI,Kd,HLA-B*40:01; [6],4.5 nM
same,Kd,HLA-B*18:01; [6],≥ 20000 nM
AFKNKRLVF,Kd,HLA-B*08:01 [1]; [5],1560 nM
ALLSRFFNM,Kd,HLA-B*08:01 [1]; [5],2.96 nM
ASAHVRQSEY,Kd,HLA-A*32:01; [7],827 nM
same,Kd,HLA-A*30:02; [7],5.79 nM
same,Kd,HLA-A*26:01; [7],≥ 24700 nM
same,Kd,HLA-A*29:02; [7],102 nM
same,Kd,HLA-A*01:01; [7],4.53 nM
same,Kd,HLA-A*30:01; [7],2730 nM
ASRRSWPLN,Kd,HLA-A*30:01; [8],50.2 nM
ATREAQKRA,Kd,HLA-A*30:01; [9],27.4 nM
CTLEGVWAPF,Kd,HLA-A*32:01; [10],44.2 nM
same,Kd,HLA-A*30:02; [10],937 nM
same,Kd,HLA-A*26:01; [10],116 nM
same,Kd,HLA-A*29:02; [10],957 nM
same,Kd,HLA-A*01:01; [10],1220 nM
same,Kd,HLA-A*30:01; [10],6960 nM
DCIMTSYQYL,Kd,HLA-A*32:01; [11],3040 nM
same,Kd,HLA-A*24:02; [11],2310 nM
same,Kd,HLA-A*30:02; [11],10400 nM
same,Kd,HLA-A*26:01; [11],12600 nM
same,Kd,HLA-A*29:02; [11],14200 nM
same,Kd,HLA-A*01:01; [11],3860 nM
same,Kd,HLA-A*30:01; [11],4430 nM
same,Kd,HLA-A*23:01; [11],5330 nM
DTVTYKCPLL,Kd,HLA-A*30:01; [8],3080 nM
EHYVRITGL,Kd,HLA-A*11:01 [2],≥ 24300 nM
same,Kd,HLA-B*08:01 [3],3530 nM
same,Kd,HLA-B*27:05,≥ 46900 nM
FCSHHFHQL,Kd,HLA-B*08:01 [1]; [12],178 nM
FPRSMLSIF,Kd,HLA-B*08:01 [1]; [5],9.88 nM
FRYVFFEII,Kd,HLA-B*08:01 [1]; [13],208 nM
FVAAALHNV,Kd,HLA-A*32:01; [14],≥ 77800 nM
same,Kd,HLA-A*30:02; [14],≥ 76900 nM
same,Kd,HLA-A*26:01; [14],2540 nM
same,Kd,HLA-A*29:02; [14],13500 nM
same,Kd,HLA-A*01:01; [14],≥ 20500 nM
same,Kd,HLA-A*30:01; [14],6100 nM
GEETIEERF,Kd,HLA-B*40:01; [15],134 nM
same,Kd,HLA-B*18:01; [15],3380 nM
same,Kd,HLA-B*44:02,≥ 20000 nM
GIFMTATPPG,Kd,HLA-A*30:01; [9],1220 nM
GPDIYKGVY,Kd,HLA-A*32:01; [16],≥ 77800 nM
same,Kd,HLA-A*24:02; [16],≥ 77500 nM
same,Kd,HLA-A*30:02; [16],1820 nM
same,Kd,HLA-A*26:01; [16],≥ 77900 nM
same,Kd,HLA-A*29:02; [16],2470 nM
same,Kd,HLA-A*01:01; [16],≥ 32200 nM
same,Kd,HLA-A*30:01; [16],≥ 66200 nM
same,Kd,HLA-A*23:01; [16],≥ 77700 nM
HLRVLFSIF,Kd,HLA-B*08:01 [1]; [5],4.66 nM
IELEHLRGL,Kd,HLA-B*18:01; source organism: Giardia lamblia ATCC 50803,10 nM
IPPTAGILA,Kd,HLA-B*51:01; [12],5550 nM
ITVSGLYPLA,Kd,HLA-A*30:01; source organism: Dengue virus 4 Philippines/H241/1956,462 nM
KITAEWLWK,Kd,HLA-A*11:01 [4],1440 nM
same,Kd,HLA-A*03:01,99.4 nM
same,Kd,HLA-A*30:01; [9],536 nM
KKMIRPQPME,Kd,HLA-A*30:01; [12],8740 nM
KLFIRQEEV,Kd,HLA-B*08:01 [3],2850 nM
same,Kd,HLA-A*02:01,400 nM
same,Kd,HLA-A*31:01,130 nM
same,Kd,HLA-B*15:01,14900 nM
KNKIPFLLL,Kd,HLA-A*30:01; [5],92.4 nM
KPAVRFAIL,Kd,HLA-B*08:01 [1]; [5],1430 nM
KPWDVVPMV,Kd,HLA-B*51:01; [9],1440 nM
KTDFSNIRA,Kd,HLA-A*30:01; [13],209 nM
KYSRSKPAA,Kd,HLA-A*30:01; [5],5.71 nM
